# Experimental data reported in patent publication US7265202.
# B1: recombinant fusion protein of GST with PIAS3 (protein, not shown: a dimerising Fc or GST)
# chain: MVMSFRVSELQVLLGFAGRNKSGRKHELLAKALHLLKSSCAPSVQMKIKELYRRRFPRKTLGPSDLSLLSLPPGTSPPVHPDVTMKPLPFYEVYGELIRPTTLASTSSQRFEEAHFTFALTPQQLQQILTSREVLPGAKCDYTIQVQLRFCLCETSCPQEDYFPPNLFVKVNGKLCPLPGYLPPTKNGAEPRGPAVRSTSHPWLDSQPLSPTPSLLIGHLSLDGITPCPCLVRQLTAGTLLQKLRAKGIRNPDHSRALIKEKLTADPDSEVATTSLPGVTHVPARKMRLTVPCRALTCAHLQSFDAALYLQMNEKKPTWTCPVCDKKAPYESLIIDGLFMEILNSCSDDDEIQFMEDGSWCPMKPKKEASEVCPPPGYGLDGLQYSAVQEGIQPESKKRVEVIDLTIESSSDEEDLPPTKKHCSPTSAAIPALPGSKGALTSGHQPSSVLRSPAMGTLGSDFLSSLPVHEYPPAFPLGADIQGLDLFSFLQTESQQYGPSVIISLDEQDTLGHFFQYRGTPSHFLGPLAPTLGSCHGSSTPAPPPGRVSSIVAPGSSLREGHGGPLPSGPSLTGCRSDVISLD
# B2: FLAG-tagged PIAS3 (protein, not shown: small tags and cut ends)
# chain: B1 chain
# B3: recombinant fusion protein of glutathione-S-transferase (GST) with PIAS1 (protein, not shown: a dimerising Fc or GST)
# chain: MADSAELKQMVMSLRVSELQVLLGYAGRNKHGRKHELLTKALHLLKAGCSPAVQMKIKELYRRRFPQKIMTPADLSIPNVHSSPMPPTLSPSTIPQLTYDGHPASSPLLPVSLLGPKHELELPHLTSALHPVHPDIKLQKLPFYDLLDELIKPTSLASDNSQRFRETCFAFALTPQQVQQISSSMDISGTKCDFTVQVQLRFCLSETSCPQEDHFPPNLCVKVNTKPCSLPGYLPPTKNGVEPKRPSRPINITSLVRLSTTVPNTIVVSWTAEIGRNYSMAVYLVKQLSSTVLLQRLRAKGIRNPDHSRALIKEKLTADSDSEIATTSLRVSLLCPLGKMRLTIPCRALTCSHLQCFDATLYIQMNEKKPTWVCPVCDKKAPYEHLIIDGLFMEILKYCTDCDEIQFKEDGSWAPMRSKKVQEVTASYNGVDGCLSSTLEHQVASHNQSSNKNKKVEVIDLTIDSSSDEEEEEPPAKRTCPSLSPTSPLSNKGILSLPHQASPVSRTPSLPAVDTSYINTSLIQDYRHPFHMTPMPYDLQGLDFFPFLSGDNQHYNTSLLAAAAAAVSDDQDLLHSSRFFPYTSSQMFLDQLSAGGSTSLPATNGSSSGSNSSLVSSNSLRESHGHGVASRSSADTASIFGIIPDIISLD
# How the values were obtained:
# Assay in all cases: cell-based or functional assay
# [1] = target: STAT3-STAT1 heterodimer (human) (UniProt P40763)
# [2] = target: STAT3-STAT3 homodimer (human) (UniProt P40763)
# [3] = target: STAT1 (from a transfected expression vector)
# [4] = target: STAT3 (from a transfected expression vector)
# [5] = target: STAT1 in interferon-treated human cells (human) (UniProt P42224)
# STAT1 in interferon-treated human cells (human), sequence (P42224 2-750 limits assumed): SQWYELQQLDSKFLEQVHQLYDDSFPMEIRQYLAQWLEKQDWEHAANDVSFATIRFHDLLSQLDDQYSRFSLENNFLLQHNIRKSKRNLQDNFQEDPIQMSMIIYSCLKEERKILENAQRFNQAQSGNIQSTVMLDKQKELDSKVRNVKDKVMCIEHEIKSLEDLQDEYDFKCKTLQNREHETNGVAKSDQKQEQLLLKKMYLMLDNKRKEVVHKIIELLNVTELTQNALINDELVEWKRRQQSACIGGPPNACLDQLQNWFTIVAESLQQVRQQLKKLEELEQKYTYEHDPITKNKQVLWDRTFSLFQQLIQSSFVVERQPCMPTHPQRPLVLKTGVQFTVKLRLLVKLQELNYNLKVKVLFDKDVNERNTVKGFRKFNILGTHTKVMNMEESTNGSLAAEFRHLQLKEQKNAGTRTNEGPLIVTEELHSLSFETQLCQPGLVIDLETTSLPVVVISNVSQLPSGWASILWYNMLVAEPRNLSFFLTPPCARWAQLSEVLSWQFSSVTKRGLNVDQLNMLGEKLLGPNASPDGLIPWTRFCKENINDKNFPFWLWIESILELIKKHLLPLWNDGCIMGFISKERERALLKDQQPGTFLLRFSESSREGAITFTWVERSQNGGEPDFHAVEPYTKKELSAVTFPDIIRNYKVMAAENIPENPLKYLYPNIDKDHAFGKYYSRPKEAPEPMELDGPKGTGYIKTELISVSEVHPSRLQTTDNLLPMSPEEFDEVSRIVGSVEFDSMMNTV
# STAT3-STAT3 homodimer (human), sequence (P40763 2-770 limits assumed): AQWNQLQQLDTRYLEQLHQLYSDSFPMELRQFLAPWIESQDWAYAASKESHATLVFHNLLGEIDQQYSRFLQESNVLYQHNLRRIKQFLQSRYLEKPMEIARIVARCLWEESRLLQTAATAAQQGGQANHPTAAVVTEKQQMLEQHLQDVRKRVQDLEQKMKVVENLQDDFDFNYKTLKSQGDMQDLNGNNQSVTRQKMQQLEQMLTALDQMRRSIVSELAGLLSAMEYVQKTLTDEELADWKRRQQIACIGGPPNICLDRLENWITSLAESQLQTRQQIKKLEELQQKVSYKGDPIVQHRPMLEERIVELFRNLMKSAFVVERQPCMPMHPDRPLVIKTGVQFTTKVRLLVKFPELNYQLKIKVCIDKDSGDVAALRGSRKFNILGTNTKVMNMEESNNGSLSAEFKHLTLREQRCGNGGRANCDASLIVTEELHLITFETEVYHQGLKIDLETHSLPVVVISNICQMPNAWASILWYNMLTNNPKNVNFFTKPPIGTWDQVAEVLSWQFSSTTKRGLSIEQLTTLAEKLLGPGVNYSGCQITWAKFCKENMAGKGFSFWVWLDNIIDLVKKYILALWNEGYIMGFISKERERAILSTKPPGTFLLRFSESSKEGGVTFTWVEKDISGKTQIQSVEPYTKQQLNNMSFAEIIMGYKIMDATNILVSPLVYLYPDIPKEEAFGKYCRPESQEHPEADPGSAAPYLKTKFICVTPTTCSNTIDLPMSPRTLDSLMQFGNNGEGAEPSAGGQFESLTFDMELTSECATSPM
# STAT3-STAT1 heterodimer (human), sequence (P40763 2-770 limits assumed, chain 1 of 2): as the sequence (P40763 2-770 limits assumed) above
# STAT3-STAT1 heterodimer (human), sequence (P42224 2-750 limits assumed, chain 2 of 2, further chain): as the sequence (P42224 2-750 limits assumed) above
# STAT1 (from a transfected expression vector), sequence (P42224 2-750): as the sequence (P42224 2-750 limits assumed) above
binder,measurement,setting,value
B1,"DNA-binding activity in mobility gel shift assay, IL6-treated HepG2 nuclear extracts",[1],100 ng
same,"DNA-binding activity in mobility gel shift assay, IL6-treated HepG2 nuclear extracts",[2],100 ng
B2,"(4X)IRF-1 luciferase reporter in human 293 cells, IFN-α stimulation",[3],1 µg
same,"(4X)IRF-1 luciferase reporter in human 293 cells, IFN-α stimulation",[4],1 µg
B3,"DNA binding activity in gel retardation assay, nuclear extracts of IFN-treated Daudi B cells",[5],45 ng
